Test results published in article doi:10.1101/2022.06.29.498105 (bioRxiv, 2022).

Target: the molecule itself
Experiment: crystal structure

B1: TRIM21 RING domain (domain or fragment)
chain: GSHMASAARLTMMWEEVTCPICLDPFVEPVSIECGHSFCQECISQVGKGGGSVCPVCRQRFLLKNLRPNRQLANMVNNLKEISQEARE
- stoichiometry N: 2
